Measurements taken from patent publication US10197572B2, “Method and kit for detection of deltanoid-resistant leukemia cells and antibody for use therein” (WROCLAWSKIE CENTRUM BADAN EIT+ SP. Z O.O., priority 2014, dated 2019).

Key:
KG1 cells [1] = test: expression of differentiation antigens CD11b and CD14 after exposure to deltanoids; assay type: cell-based; conditions: FIG. 4b
Source text: According to the invention, cells from the KG1 acute myeloid leukemia line were used as a model for cells resistant to differentiation mediated by deltanoids. […] Effect on clonal proliferation and differentiation of human myeloid cells. J Clin Invest, 1986. 78: p. […] J Steroid Biochem Mol Biol, 2012. 132(3-5): p. 220-6]. The HL60 acute myeloid leukemia cell line, used in laboratories engaged in studying deltanoid-mediated differentiation, served as a sensitive line model [Marcinkowska, E. et al., Cell differentiating and anti-proliferative activity of side-chain modified analogs of 1,25-dihydroxyvitamin D3. J Steroid Biochem Mol Biol, 1998. 67(1): p. 71-8; Gallagher, R. et al., Characterization of the continuous, differentiating myeloid cell line (HL-60) from a patient with acute promyelocytic leukemia. Blood, 1979. 54: p. 713-733; Brackman, D. et al., Expression of cell surface antigens during the differentiation of HL-60 cells induced by 1,25-dihydroxyvitamin D3, retinoic acid and DMSO. Leuk Res, 1995. 19: p. 57-64].
Studying susceptibility to differentiation mediated by deltanoids is done in a number of ways. One of these is observing the appearance of antigens typical for macrophages on the surface of deltanoid (calcitriol or analogs) treated cells, serving important functions for the macrophages. […]

KG1 cells [2] = conditions: exposure even to high concentrations; cited from earlier work
HL60 cells [3] = conditions: exposure even to low concentrations; cited from earlier work
KG1-CtrA cells [4] = test: expression of differentiation antigens CD11b and CD14 after exposure to deltanoids; assay type: cell-based; conditions: unpublished data
HL60 cells [5] = test: ELISA on whole cells; assay type: binding
Source text: (§1) Screening the library in order to find antibodies in an scFv format, specifically interacting with the KG1 line, was done based on ELISA according to the Tomlinson protocol (phages with envelope protein fused with scFv after expression on a 96-well plate served as the primary antibody for ELISA). Again, the cells were not immobilized on a Nunc U plate but only centrifuged in mild conditions. The identified positive clones were expressed in the form of solubilized scFv (without fusion with a phage envelope protein) and purified on a protein A resin, and then tested on KG1 cells and HL60 cells obtaining desired results (specificity against KG1 line) (FIG. 1).
At the same time, it was observed that the HL60 cells spontaneously convert the substrate for HRP conjugated with the secondary antibody, giving results that need to be analyzed with caution. To this end, the reaction for HL60 was stopped sooner but the results required additional confirmation with a different method anyway.

KG1 cells [6] = test: library screening with the ELISA method on whole cells; assay type: binding; conditions: FIG. 1, background subtracted
Source text: The OD450-OD650 signal informs of the binding strength of the tested antibody to KG1 cells (more particularly: of the amount of the antibody bound to the antigen, being then recognized by a secondary HRP-conjugated antibody). Background signal, namely OD450-OD650 for the control with only the secondary antibody, was then subtracted from all measurements. The numbers and letters indicate the position on a 96-well plate.
as §1

KG1-CtrA cells [7] = test: flow cytometry, direct labeling with FITC-labeled scFv; assay type: binding; conditions: 1 μg 6B/FITC, 5×10^5 KG1-CtrA cells, FIG. 5
Protocol: (§2) FITC-labeled 6B and 8F antibodies were used to label the HL60, KG1 and KG1-CtrA cells. To this end, 5×10^5 cells of each were suspended in 50 μl of PBS buffer without calcium and magnesium ions with 0.1% BSA. Either 1 μg of the 8F/FITC protein or 1 μg of the 6B/FITC protein were added to each suspension. Samples were incubated for 45 minutes in darkness on ice, then washed with PBS without calcium and magnesium ions, supplemented with 0.1% BSA and subsequently fluorescence of the samples was read by flow cytometry.

HL60 cells [8] = test: flow cytometry, sandwich labeling with scFv and FITC-conjugated secondary antibody; assay type: binding; conditions: HL60 + 6B + anti-c-myc-FITC, sandwich method
Protocol: (§3) As a confirmation of the ELISA assays, the flow cytometry analysis was conducted, wherein the cells were labeled with a FITC-conjugated antibody in an scFv format (direct labeling) or with an antibody in an scFv format and then with a FITC-conjugated secondary antibody recognizing the former (sandwich method).
(§4) Optimal dilution of the secondary antibody in the sandwich method is 1:100 or 1:50 (10^5 cells).

KG1 cells [9] = test: as above; assay type: binding; conditions: KG1 + 6B + anti-c-myc-FITC, sandwich method
Protocol: as §3, §4

HL60 cells [10] = test: flow cytometry, direct labeling with FITC-labeled scFv; assay type: binding
Protocol: as §2

KG1 cells [11] = test: as above; assay type: binding
Protocol: as §2

C=C1/C(=C\C=C2/CCC[C@]3(C)[C@@H]([C@H](C)CCCC(C)(C)O)CC[C@@H]23)C[C@@H](O)C[C@@H]1O [calcitriol]
differentiation after exposure (KG1 cells [1]): lack of differentiation
CD11 b and CD14 expression (KG1 cells [2]): do not alter
expression of CD14 and CD11b antigens (HL60 cells [3]): significantly increase expression
expression of differentiation antigens CD11 b and CD14 (KG1-CtrA cells [4]): significantly increase expression

B1: 6B: scFv of SEQ ID NO: 1, which specifically recognizes KG1 cells line, obtained by phage display (protein)
scFv: EVQLLESGGGLVQPGGSLRLSCAASGFTFSSYGMSWVRQAPGKGLEWVSTIRTAGRATEYADSVKGRFTISRDNSKNTLYLQMNSLRAEDTAVYYCAKSPQTFDYWGQGTLVTVSSGGGGSGGGGSGGGGSTDIQMTQSPSSLSASVGDRVTITCRASQSISSYLNWYQQKPGKAPKLLIYRASRLQSGVPSRFSGSGSGTDFTLTISSLQPEDFATYYCQQRLTIPITFGQGTKVEIKRAAA
modifications: antibody 6B
ELISA signal in comparison to control with non-specific scFv (HL60 cells [5]): no increased signal
OD450-OD650 signal (binding strength to KG1 cells) (KG1 cells [6]): clearly prominent
presence of the 6B-binding antigen (KG1-CtrA cells [7]): lost
FITC+: GeoMean (HL60 cells [8]): 9.8
FITC+: mean (HL60 cells [8]): 10.7
FITC+: median (HL60 cells [8]): 8.9
FITC+: % Vis (KG1 cells [9]): 100.0%
FITC+: GeoMean (KG1 cells [9]): 28.1
FITC+: mean (KG1 cells [9]): 29.4
FITC+: median (KG1 cells [9]): 28.4

B2: 8F: scFv of SEQ ID NO: 2, negative control, same framework as 6B, differing only in hypervariable fragments (protein)
scFv: EVQLLESGGGLVQPGGSLRLSCAASGFTFSSYGMSWVRQAPGKGLEWVSWIDASGTRTQYADSVKGRFTISRDNSKNTLYLQMNSLRAEDTAVYYCAKLFRSFDYWGQGTLVTVSSGGGGSGGGGSGGGGSTDIQMTQSPSSLSASVGDRVTITCRASQSISSYLNWYQQKPGKAPKLLIYRASSLQSGVPSRFSGSGSGTDFTLTISSLQPEDFATYYCQQGQTLPITFGQGTKVEIKRAAA
modifications: antibody 8F
recognition of deltanoid-sensitive leukemia cells (HL60 cells [10]): not recognizing
recognition of deltanoid-resistant leukemia cells (KG1 cells [11]): not recognizing
